The chains are these.
B1: Cell division cycle 7-related protein kinase (Homo sapiens), O00311 (parent)
chain: MEASLGIQMDEPMAFSPQRDRFQAEGSLKKNEQNFKLAGVKKDIEKLYEAVPQLSNVFKIEDKIGEGTFSSVYLATAQLQVGPEEKIALKHLIPTSHPIRIAAELQCLTVAGGQDNVMGVKYCFRKNDHVVIAMPYLEHESFLDILNSLSFQEVREYMLNLFKALKRIHQFGIVHRDVKPSNFLYNRRLKKYALVDFGLAQGTHDTKIELLKFVQSEAQQERCSQNKSHIITGNKIPLSGPVPKELDQQSTTKASVKRPYTNAQIQIKQGKDGKEGSVGLSVQRSVFGERNFNIHSSISHESPAVKLMKQSKTVDVLSRKLATKKKAISTKVMNSAVMRKTASSCPASLTCDCYATDKVCSICLSRRQQVAPRAGTPGFRAPEVLTKCPNQTTAIDMWSAGVIFLSLLSGRYPFYKASDDLTALAQIMTIRGSRETIQAAKTFGKSILCSKEVPAQDLRKLCERLRGMDSSTPKLTSDIQGHASHQPAISEKTDHKASCLVQTPPGQYSGNSFKKGDSNSCEHCFDEYNTNLEGWNEVPDEAYDLLDKLLDLNPASRITAEEALLHPFFKDMSL
partner: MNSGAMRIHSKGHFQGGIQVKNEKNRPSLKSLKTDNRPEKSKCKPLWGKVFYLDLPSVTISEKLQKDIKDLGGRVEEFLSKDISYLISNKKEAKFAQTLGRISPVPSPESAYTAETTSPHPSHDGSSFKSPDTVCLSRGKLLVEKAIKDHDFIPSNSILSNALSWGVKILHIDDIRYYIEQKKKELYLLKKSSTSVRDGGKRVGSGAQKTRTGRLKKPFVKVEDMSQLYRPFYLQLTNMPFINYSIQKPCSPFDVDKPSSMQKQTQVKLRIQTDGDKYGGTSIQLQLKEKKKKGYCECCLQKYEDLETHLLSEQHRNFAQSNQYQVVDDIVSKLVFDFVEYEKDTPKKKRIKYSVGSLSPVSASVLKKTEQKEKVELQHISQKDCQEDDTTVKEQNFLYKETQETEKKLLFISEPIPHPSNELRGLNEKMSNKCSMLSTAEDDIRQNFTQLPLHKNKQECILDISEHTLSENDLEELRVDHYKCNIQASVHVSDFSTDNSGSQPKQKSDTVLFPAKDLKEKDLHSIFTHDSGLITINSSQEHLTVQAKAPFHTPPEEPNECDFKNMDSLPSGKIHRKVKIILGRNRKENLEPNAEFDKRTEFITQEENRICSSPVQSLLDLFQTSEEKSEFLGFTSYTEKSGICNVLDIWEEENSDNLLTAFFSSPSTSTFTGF
B2: Retinoic acid receptor alpha (Homo sapiens), P10276 (parent)
chain: MASNSSSCPTPGGGHLNGYPVPPYAFFFPPMLGGLSPPGALTTLQHQLPVSGYSTPSPATIETQSSSSEEIVPSPPSPPPLPRIYKPCFVCQDKSSGYHYGVSACEGCKGFFRRSIQKNMVYTCHRDKNCIINKVTRNRCQYCRLQKCFEVGMSKESVRNDRNKKKKEVPKPECSESYTLTPEVGELIEKVRKAHQETFPALCQLGKYTTNNSSEQRVSLDIDLWDKFSELSTKCIIKTVEFAKQLPGFTTLTIADQITLLKAACLDILILRICTRYTPEQDTMTFSDGLTLNRTQMHNAGFGPLTDLVFAFANQLLPLEMDDAETGLLSAICLICGDRQDLEQPDRVDMLQEPLLEALKVYVRKRRPSRPHMFPKMLMKITDLRSISAKGAERVITLKMEIPGSMPPLIQEMLENSEGLDTLSGQPGGGGRDGGGLAPPPGSCSPSLSPSSNRSSPATHSP
partner: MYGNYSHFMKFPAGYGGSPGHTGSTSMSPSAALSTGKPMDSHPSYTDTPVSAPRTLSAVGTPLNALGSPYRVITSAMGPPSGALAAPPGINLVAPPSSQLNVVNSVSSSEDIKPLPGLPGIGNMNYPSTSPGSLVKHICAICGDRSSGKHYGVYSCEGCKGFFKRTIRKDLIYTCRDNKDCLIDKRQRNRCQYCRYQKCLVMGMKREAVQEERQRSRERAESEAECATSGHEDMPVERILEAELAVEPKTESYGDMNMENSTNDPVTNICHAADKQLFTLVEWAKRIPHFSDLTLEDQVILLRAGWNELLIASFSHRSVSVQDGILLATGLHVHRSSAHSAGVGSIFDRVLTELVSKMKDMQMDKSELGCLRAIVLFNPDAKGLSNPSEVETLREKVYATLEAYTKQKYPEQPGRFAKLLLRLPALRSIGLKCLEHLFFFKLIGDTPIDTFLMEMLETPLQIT
B3: Baculoviral IAP repeat-containing protein 7 (Homo sapiens), Q96CA5-1 (parent)
chain: MGPKDSAKCLHRGPQPSHWAAGDGPTQERCGPRSLGSPVLGLDTCRAWDHVDGQILGQLRPLTEEEEEEGAGATLSRGPAFPGMGSEELRLASFYDWPLTAEVPPELLAAAGFFHTGHQDKVRCFFCYGGLQSWKRGDDPWTEHAKWFPSCQFLLRSKGRDFVHSVQETHSQLLGSWDPWEEPEDAAPVAPSVPASGYPELPTPRREVQSESAQEPGGVSPAEAQRAWWVLEPPGARDVEAQLRRLQEERTCKVCLDRAVSIVFVPCGHLVCAECAPGLQLCPICRAPVRSRVRTFLS
B4: Notch homolog 2 N-terminal-like protein A (Homo sapiens), Q7Z3S9 (parent)
chain: MCVTYHNGTGYCKCPEGFLGEYCQHRDPCEKNRCQNGGTCVAQAMLGKATCRCASGFTGEDCQYSTSHPCFVSRPCLNGGTCHMLSRDTYECTCQVGFTGKECQWTDACLSHPCANGSTCTTVANQFSCKCLTGFTGQKCETDVNECDIPGHCQHGGTCLNLPGSYQCQCLQGFTGQYCDSLYVPCAPSPCVNGGTCRQTGDFTFECNCLPETVRRGTELWERDREVWNGKEHDEN
partner: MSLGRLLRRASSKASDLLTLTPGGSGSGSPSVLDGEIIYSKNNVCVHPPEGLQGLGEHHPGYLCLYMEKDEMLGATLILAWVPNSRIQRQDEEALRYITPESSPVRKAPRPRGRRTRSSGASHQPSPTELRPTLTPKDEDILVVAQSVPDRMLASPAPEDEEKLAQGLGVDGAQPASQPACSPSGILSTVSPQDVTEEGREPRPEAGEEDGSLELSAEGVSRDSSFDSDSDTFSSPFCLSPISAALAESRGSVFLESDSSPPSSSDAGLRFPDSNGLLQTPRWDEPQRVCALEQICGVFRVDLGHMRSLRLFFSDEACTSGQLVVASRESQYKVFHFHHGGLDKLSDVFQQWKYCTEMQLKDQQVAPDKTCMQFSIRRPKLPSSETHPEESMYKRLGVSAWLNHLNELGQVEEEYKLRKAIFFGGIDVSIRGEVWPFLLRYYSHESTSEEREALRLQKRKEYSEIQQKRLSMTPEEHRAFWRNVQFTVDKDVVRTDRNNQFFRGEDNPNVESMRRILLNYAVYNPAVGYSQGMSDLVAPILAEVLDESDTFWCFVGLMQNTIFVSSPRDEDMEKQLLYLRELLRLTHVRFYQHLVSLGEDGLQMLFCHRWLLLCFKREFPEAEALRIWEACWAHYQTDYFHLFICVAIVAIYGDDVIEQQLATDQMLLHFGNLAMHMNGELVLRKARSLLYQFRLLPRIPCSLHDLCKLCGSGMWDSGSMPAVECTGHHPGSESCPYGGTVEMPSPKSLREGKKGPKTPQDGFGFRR

In the first experiment the parent is B1. The following applies: with dbf4a_human DBF4, Q9UBU7.
With Q106R, the “effect of a mutation on the interaction” value is “with no effect”.

For the variant Q456H, the “effect of a mutation on the interaction” value is “with no effect”.

In a further experiment the parent is B2. Particulars: with rxrg_human RXRG.
With P318R, the “effect of a mutation on the interaction” value was “with no effect”.

In a further experiment the parent is B3. Particulars: with phf1_human PHF1, O43189.
Chain of phf1_human PHF1, O43189 (O43189 whole entry): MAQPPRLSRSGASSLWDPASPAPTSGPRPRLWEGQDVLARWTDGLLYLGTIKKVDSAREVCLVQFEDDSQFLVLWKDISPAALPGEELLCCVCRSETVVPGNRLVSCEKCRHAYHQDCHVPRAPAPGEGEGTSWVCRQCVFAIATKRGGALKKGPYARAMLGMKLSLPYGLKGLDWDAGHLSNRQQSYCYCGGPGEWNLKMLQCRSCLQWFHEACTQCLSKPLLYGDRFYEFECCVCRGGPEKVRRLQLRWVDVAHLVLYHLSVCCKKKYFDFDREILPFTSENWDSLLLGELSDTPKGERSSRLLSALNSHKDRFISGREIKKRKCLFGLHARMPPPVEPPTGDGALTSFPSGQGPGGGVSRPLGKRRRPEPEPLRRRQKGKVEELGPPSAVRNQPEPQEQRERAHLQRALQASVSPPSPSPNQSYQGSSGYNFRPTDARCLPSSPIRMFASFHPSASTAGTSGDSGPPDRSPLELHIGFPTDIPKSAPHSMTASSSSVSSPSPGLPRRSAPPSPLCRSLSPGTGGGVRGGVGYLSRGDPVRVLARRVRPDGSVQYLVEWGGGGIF
As for H164R, the “effect of a mutation on the interaction” value was “with no effect”.

Another experiment covers variants of B3. The following applies: with ddx6_human DDX6, P26196.
Chain of ddx6_human DDX6, P26196 (P26196 whole entry): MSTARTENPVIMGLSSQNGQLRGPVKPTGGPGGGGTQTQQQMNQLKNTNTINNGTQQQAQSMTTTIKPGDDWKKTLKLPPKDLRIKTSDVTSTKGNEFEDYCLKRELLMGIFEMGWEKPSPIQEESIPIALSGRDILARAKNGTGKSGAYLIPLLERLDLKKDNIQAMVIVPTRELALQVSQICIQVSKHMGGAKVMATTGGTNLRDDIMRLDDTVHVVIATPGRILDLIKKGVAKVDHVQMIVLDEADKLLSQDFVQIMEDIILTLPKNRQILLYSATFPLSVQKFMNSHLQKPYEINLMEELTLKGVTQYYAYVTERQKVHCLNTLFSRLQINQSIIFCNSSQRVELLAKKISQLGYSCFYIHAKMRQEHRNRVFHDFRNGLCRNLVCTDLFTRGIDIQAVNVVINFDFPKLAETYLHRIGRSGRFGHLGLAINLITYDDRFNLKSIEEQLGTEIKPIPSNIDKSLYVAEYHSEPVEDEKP
Regarding H164R, the “effect of a mutation on the interaction” value is reported as “with no effect”.

In another experiment the parent is B3. Particulars: with birc2_human BIRC2, Q13490.
Chain of birc2_human BIRC2, Q13490 (Q13490 whole entry): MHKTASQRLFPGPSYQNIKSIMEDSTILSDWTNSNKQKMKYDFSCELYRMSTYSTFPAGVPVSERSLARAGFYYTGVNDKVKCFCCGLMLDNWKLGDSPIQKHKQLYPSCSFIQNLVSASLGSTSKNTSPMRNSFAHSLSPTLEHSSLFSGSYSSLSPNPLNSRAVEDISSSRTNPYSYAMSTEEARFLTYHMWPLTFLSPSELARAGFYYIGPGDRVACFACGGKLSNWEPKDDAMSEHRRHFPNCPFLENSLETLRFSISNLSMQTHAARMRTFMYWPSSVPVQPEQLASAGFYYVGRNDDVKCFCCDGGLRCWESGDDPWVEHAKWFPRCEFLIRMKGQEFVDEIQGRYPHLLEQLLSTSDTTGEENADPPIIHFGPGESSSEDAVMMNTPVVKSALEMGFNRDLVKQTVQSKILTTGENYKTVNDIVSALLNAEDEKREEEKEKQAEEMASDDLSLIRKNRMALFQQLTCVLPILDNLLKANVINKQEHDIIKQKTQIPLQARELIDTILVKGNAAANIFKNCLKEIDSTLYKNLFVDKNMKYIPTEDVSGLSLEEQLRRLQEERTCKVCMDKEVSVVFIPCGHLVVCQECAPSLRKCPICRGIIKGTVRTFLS
In the case of H164R, the “effect of a mutation on the interaction” value is given as “with no effect”.

In the next experiment the parent is B3. Particulars: with ddx6_human DDX6, P26196. This is another data set of the same source.
Take H164R: the “effect of a mutation on the interaction” value is “with no effect”.

Another experiment covers variants of B3. The following applies: with casp9_human CASP9, P55211.
Chain of casp9_human CASP9, P55211 (P55211 whole entry): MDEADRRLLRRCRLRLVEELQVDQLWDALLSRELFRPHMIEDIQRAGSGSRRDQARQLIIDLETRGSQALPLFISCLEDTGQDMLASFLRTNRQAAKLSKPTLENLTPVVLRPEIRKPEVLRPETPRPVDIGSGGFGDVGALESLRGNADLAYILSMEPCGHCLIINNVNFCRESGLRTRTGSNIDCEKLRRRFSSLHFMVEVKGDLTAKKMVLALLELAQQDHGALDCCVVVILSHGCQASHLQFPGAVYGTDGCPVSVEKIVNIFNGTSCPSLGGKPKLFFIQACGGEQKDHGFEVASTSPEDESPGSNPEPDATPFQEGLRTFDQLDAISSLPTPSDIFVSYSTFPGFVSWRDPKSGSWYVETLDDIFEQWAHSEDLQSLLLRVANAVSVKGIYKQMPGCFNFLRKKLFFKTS
On to H164R, for which the “effect of a mutation on the interaction” value was “with no effect”.

In the next experiment the parent is B3. The following applies: with birc2_human BIRC2, Q13490. The source holds these as a separate data set.
H164R: the “effect of a mutation on the interaction” value was “with no effect”.

The variants in another experiment derive from B3. Particulars: with phf1_human PHF1, O43189. This is another data set of the same source.
Regarding H164R, the “effect of a mutation on the interaction” value is reported as “with no effect”.

Variants of B3 are the subject of the next experiment. The following applies: with casp9_human CASP9, P55211. This is another data set of the same source.
Turning to H164R, the “effect of a mutation on the interaction” value was “with no effect”.

Another experiment covers variants of B4. Particulars: with tbc16_human TBC1D16, Q8TBP0.
On to R74Q, for which the “effect of a mutation on the interaction” value was “with no effect”.
